Patent publication US7723122

Molecular target: protein A (UniProt P38507)
Assay: SPR, BIACORE 3000, protein A immobilised on CM5 chip, 4.4 ug/ml BSA in flow at 20 ul/min; nonlinear regression with Rmax fixed at 880 RU

## BSA (molecular weight: 66,200) (from UniProt P02769 25-607) (other; other documents disagree on this pair)
  koff: 0.11 s⁻¹
  kon: 880000 M⁻¹ s⁻¹
